Test results from patent publication US11274129B2, “Methods for protein tyrosine phosphorylation profiling with variant SH2 domains” (priority 2016, dated 2022).

Test system: mixture of 40 different pTyr-including peptides derived from ITRMs
Assay: Capture of pTyr-including peptides from a mixture of ITRM peptides by QuadM-TrM tandem Superbinder versus TrM human Src SH2 Superbinder, scheduled PRM
Type: binding
Conditions: for (QT-TrM)/mean: QuadM-TrM tandem vs TrM human Src SH2 Superbinder, PRM peak area
Excerpt: A QuadM-TrM tandem Superbinder (SEQ ID NO: 15) was produced in E. Coli by expressing a recombinant DNA that contained the gene encoding the QuadM human Src Superbinder (SEQ ID NO: 12) in tandem with the gene encoding the TrM human Src Superbinder (SEQ ID NO: 5). Equal molar amounts (200 pmole) of the QuadM-TrM tandem Superbinder and the TrM human Src SH2 Superbinder were used to capture pTyr-including peptides from a mixture of 40 different pTyr-including peptides (200 fmole each) derived from ITRMs. The isolated peptides were identified by scheduled PRM and quantified based on the corresponding MS peak area.
Shown are the relative preferences of each pTyr-including peptide for the QuadM-TrM tandem Superbinder versus the TrM human Src SH2 Superbinder, as defined by the value of “(QT-TrM)/Mean”, where “QT” represents the amount of pTyr-including peptide captured by the QuadM-TrM tandem Superbinder, “TrM” represents the amount of pTyr-including peptide captured by the TrM human Src SH2 Superbinder, and “Mean” represents the mean amount of pTyr-including peptide captured by both the QuadM-TrM tandem Superbinder and the TrM human Src SH2 Superbinder. Yellow and blue shaded boxes indicate hydrophobic and hydrophilic residues, respectively, at the pTyr+3 position in the sequence of the pTyr-including peptide.

B1: QuadM-TrM tandem Superbinder: QuadM human Src Superbinder in tandem with the TrM human Src Superbinder in a single protein (protein)
chain: DSIQAEEWYFGKITRRESERLLLNAENPRGTFLVRESETVKGAYALSVSDFDNAKGLNVRHYLIRKLDSGGFYIWSRTQFNSLQQLVAYYSKHADGLSHRLTTVSPTSKGGSGGSMDSIQAEEWYFGKITRRESERLLLNAENPRGTFLVRESETVKGAYALSVSDFDNAKGLNVRHYLIRKLDSGGFYITSRTQFNSLQQLVAYYSKHADGLSHRLTTVSPTSK
modifications: SH2 protein domain; QuadM-TrM human Src SH2 tandem domain
capture of pTyr-including peptides relative to the TrM human Src Superbinder (200 pmole Superbinder, 200 fmole each peptide): improved capture of pTyr-including peptides | (QT-TrM)/mean (peptide ARFGAP2_pY445 EVDAEpYEAR): 0.3 | (QT-TrM)/mean (peptide ARHGAP15_pY219 SSSTELLSHpYDSDIK): 0.3 | (QT-TrM)/mean (peptide ARHGEF6_pY644 KPSEEEpYVIR): 1.2 | (QT-TrM)/mean (peptide ARID1A_pY229 SAYPPPAPApYALSSPR): 0.3 | (QT-TrM)/mean (peptide ASNS_pY216 DVPLHALpYDNVEK): 0.3 | (QT-TrM)/mean (peptide C9orf78_pY277 ATDDpYHYEK): 0.6 | (QT-TrM)/mean (peptide CD3D_pY160 DDAQpYSHLGGNWAR): 0.3 | (QT-TrM)/mean (peptide CD3E_pY188 ERPPPVPNPDpYEPIR): 0.5 | (QT-TrM)/mean (peptide CD3E_pY199 DLpYSGLNQR): 0.0 | (QT-TrM)/mean (peptide CD3G_pY160 QTLLPNDQLpYQPLK): 0.2 | (QT-TrM)/mean (peptide CD3G_pY171 EDDQpYSHLQGNQLR): 0.0 | (QT-TrM)/mean (peptide CD28_pY206/209 HpYQPpYAPPR): 0.3 | (QT-TrM)/mean (peptide CD28_pY218 DFAApYR): 1.3 | (QT-TrM)/mean (peptide CD84_pY296 IpYDEILQSK): −0.1 | (QT-TrM)/mean (peptide CD84_pY316 EEPVNTVpYSEVQFADK): 0.1 | (QT-TrM)/mean (peptide CD247_pY72 SADAPAYQQGQNQLpYNELNLGR): 1.5 | (QT-TrM)/mean (peptide CD247_pY111 NPQEGLpYNELQK): 0.0 | (QT-TrM)/mean (peptide CD247_pY142 GHDGLpYQGLSTATK): 0.4 | (QT-TrM)/mean (peptide CLPTM1L_pY527 VNEFGESpYEEK): 0.3 | (QT-TrM)/mean (peptide DBN1_pY34 ALpYTYEDGSDDLK): 0.0 | (QT-TrM)/mean (peptide EXOC4_pY51 LEEApYEK): 0.5 | (QT-TrM)/mean (peptide HCLS1_pY175 AALGpYDYK): 0.3 | (QT-TrM)/mean (peptide ITK_pY512 FVLDDQpYTSSTGTK): 1.0 | (QT-TrM)/mean (peptide LAT_pY110 DSDGANSVASpYENEGASGlR): −0.2 | (QT-TrM)/mean (peptide LAT_pY220 EpYVNVSQELHPGAAK): 0.2 | (QT-TrM)/mean (peptide LCP1_pY300 AYpYHLLEQVAPK): 0.4 | (QT-TrM)/mean (peptide LIMD2_pY102 GNpYDEGFGR): 0.0 | (QT-TrM)/mean (peptide PJA2_pY28 AVWPKPAGGpYQTITGR): 0.4 | (QT-TrM)/mean (peptide PLCG2_pY1245 EFSVNENQLQLpYQEK): 1.2 | (QT-TrM)/mean (peptide PTPN7_pY149 AQSQEDGDpYINANYIR): 0.0 | (QT-TrM)/mean (peptide RBMX_pY335 SDLpYSSGR): 0.6 | (QT-TrM)/mean (peptide RFTN1_pY20 RPGNIpYSTLK): 0.3 | (QT-TrM)/mean (peptide SIT1_pY148 pYSEVVLDSEPK): −0.2 | (QT-TrM)/mean (peptide SPEN_pY1399 ASALpYESSR): −0.1 | (QT-TrM)/mean (peptide THUMPD1_pY22 AQpYVLAK): −0.2 | (QT-TrM)/mean (peptide TLR7_pY1041 NALATDNHVApYSQVFK): 0.1 | (QT-TrM)/mean (peptide TRAF3IP3_pY178/179 GQQIpYpYHK): 0.9 | (QT-TrM)/mean (peptide TRAF3IP3_pY179 GQQIYpYHK): 1.5 | (QT-TrM)/mean (peptide ZAP70_pY164 MPWpYHSSLTR): 0.2 | (QT-TrM)/mean (peptide ZAP70_pY292 IDTLNSDGpYTPEPAR): 0.3
